Source: US20260159591A1

Columns and labels:
[1] = biological target: murine ITGA11 expressed in CHO cells (murine) (UniProt P61622); test: flow cytometry, 34 nM antibody on CHO cells expressing murine ITGA11
[2] = biological target: human ITGA11 expressed in mouse C2C12 cells (human) (UniProt Q9UKX5); test: flow cytometry, 34 nM antibody on C2C12 cells expressing human ITGA11
human ITGA11 expressed in mouse C2C12 cells (human), sequence (Q9UKX5 23-1188): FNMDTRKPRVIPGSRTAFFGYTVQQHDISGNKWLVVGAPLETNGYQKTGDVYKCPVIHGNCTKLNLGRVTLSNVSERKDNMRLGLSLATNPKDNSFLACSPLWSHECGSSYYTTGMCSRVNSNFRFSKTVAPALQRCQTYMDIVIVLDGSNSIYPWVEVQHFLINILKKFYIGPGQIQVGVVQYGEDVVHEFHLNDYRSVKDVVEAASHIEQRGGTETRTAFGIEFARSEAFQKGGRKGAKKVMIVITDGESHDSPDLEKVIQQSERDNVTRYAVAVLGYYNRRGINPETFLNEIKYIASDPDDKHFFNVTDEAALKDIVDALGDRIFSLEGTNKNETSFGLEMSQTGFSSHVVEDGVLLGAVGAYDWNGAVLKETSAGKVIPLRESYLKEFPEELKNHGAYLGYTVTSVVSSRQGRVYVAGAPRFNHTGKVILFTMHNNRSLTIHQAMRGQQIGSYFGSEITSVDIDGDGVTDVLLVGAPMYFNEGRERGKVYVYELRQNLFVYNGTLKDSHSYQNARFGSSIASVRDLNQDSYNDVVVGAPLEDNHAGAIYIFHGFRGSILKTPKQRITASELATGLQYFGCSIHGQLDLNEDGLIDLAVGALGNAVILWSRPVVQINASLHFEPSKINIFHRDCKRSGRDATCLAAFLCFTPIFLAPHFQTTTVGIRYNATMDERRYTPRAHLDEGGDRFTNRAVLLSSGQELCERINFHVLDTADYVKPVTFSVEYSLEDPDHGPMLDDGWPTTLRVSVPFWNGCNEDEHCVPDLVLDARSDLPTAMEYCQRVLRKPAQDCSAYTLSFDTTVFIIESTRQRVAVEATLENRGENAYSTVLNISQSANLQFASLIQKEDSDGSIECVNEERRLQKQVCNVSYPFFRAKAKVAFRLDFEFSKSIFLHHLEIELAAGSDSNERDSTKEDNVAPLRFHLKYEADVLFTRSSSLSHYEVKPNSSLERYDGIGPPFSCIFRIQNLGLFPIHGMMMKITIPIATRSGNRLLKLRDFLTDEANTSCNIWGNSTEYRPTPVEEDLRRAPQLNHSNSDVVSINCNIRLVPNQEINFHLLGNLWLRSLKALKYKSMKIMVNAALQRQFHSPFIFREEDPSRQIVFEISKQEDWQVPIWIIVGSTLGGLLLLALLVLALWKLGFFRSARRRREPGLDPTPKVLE

murine ITGA11 expressed in CHO cells (murine), sequence (P61622 23-1188): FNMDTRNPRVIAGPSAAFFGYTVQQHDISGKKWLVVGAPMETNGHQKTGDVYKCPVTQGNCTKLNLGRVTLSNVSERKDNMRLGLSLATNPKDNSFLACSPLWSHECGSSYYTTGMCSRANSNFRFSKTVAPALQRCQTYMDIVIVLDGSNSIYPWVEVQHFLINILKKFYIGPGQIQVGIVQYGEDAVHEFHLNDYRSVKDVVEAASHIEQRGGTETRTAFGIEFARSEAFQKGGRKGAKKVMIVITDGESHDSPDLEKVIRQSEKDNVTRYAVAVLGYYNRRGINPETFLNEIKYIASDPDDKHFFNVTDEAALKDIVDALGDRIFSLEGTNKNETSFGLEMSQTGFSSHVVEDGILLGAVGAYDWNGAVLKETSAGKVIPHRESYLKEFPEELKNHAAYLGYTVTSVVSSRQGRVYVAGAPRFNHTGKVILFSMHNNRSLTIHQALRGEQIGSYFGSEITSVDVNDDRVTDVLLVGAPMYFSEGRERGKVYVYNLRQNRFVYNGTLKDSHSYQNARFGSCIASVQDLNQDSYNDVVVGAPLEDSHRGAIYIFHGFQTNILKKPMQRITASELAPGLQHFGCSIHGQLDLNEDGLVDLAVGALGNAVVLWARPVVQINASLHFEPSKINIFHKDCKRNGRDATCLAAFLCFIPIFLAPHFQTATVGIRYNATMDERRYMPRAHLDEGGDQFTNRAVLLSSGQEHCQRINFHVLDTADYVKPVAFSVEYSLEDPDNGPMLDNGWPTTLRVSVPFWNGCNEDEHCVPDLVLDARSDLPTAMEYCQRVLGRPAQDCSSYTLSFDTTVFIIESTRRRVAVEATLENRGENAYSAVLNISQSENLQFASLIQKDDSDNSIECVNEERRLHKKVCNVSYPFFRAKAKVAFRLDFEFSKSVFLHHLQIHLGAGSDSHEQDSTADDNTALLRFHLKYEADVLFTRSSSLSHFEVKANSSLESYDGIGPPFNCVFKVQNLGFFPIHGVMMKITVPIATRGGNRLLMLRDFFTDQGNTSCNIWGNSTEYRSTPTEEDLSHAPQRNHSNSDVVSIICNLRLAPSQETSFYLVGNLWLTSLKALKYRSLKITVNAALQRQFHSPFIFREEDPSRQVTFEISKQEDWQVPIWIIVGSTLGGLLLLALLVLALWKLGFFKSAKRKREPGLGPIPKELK

Question: Which MFI [1] does the source give for Control IgG4 (antibody) here?
Answer: 513 MFI

Question: And the MFI [2]?
Answer: 557 MFI
